Test results as given in patent US20050148763A1, “Peg-binding pth or peg-binding pth derivative” (Chugai Seiyaku Kabushiki Kaisha, priority 2002, published 2005).

Tests used:
[1] = Hypercalcemic effect of PEG-[Cys^35]-PTH(1-35) in normal female DDY mice; assay type: in vivo; details: for Blood iCa level Hour 1: 1 hour after administration; for Blood iCa level Hour 3: 3 hours; for Blood iCa level Hour 6: 6 hours; for Blood iCa level Hour 9: 9 hours; for Blood iCa level Hour 24: 24 hours; for Blood iCa level Hour 0: before administration
Procedure: 2 k, 5 k and 20 k PEG-[Cys^35]-PTH(1-35) were also adjusted similarly to 30, 10 and 2 nmol/mL (calculated as PTH) and allowed to stand on ice immediately before administration.
Using female DDY mice at 6 weeks of age (Japan SLC, Inc.), the corrected level of ionized calcium at pH 7.4 was determined for each sample in the same manner as shown in (1) above. The mice received subcutaneous administration of each drug at a dose of 5 mL/kg. The buffer was administered to a group of 5 mice. […] 150 nmol/kg 2 k, 5 k and 20 k PEG-[Cys^35]-PTH(1-35) were administered to groups of 4 mice each. 50 and 10 nmol/kg 2 k, 5 k and 20 k PEG-[Cys^35]-PTH(1-35) were administered to groups of 5 mice each. At 1, 3, 6, 9 and 24 hours after administration, blood was collected by orbital puncture to monitor the time course of corrected blood ionized calcium levels.

rat PTH1 receptors = target: T1, rat PTH1 receptors (Rattus norvegicus, UniProt P25961); experiment: in vitro ability to produce cAMP, EW29 cells; assay type: cell-based; details: Table 2(3), n=2-3
T1 construct: expressed in transfected cells; host or cells: EW29 cells
T1 sequence (P25961 27-591): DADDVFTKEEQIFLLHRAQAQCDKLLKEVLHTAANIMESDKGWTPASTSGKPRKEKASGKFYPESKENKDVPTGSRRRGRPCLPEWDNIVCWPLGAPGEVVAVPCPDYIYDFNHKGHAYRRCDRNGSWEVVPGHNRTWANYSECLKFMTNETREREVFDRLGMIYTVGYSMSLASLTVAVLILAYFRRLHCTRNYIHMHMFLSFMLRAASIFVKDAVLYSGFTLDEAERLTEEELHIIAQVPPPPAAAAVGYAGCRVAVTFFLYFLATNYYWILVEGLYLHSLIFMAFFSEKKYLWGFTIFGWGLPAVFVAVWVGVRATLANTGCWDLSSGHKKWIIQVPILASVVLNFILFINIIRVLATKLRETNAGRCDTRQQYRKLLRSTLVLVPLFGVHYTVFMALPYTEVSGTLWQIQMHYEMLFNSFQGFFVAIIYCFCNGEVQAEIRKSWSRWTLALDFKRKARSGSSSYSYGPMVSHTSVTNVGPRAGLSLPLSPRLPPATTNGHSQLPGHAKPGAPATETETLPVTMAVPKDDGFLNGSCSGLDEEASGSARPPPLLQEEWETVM
Procedure: (§1) Each PEG-PTH sample was assayed for its ability to produce cAMP (indicative of the increasing effect of PTH on bone mass) as follows. […] These cells were seeded in 96-well plates at 1×10^5 cells/well and incubated overnight. […] After removing the reaction solution, the plates were placed on powdered dry ice to freeze the cells and then removed from the dry ice. The cells were thawed with 50 μL of 50 mM HCl and frozen again on dry ice. The level of intracellular cAMP was determined with a commercially available EIA kit (Biotrak cAMP EIA system, Amersham).

human PTH1 receptors [2] = target: T2, human PTH1 receptors (Homo sapiens, UniProt Q03431); experiment: in vitro ability to produce cAMP, HKRK-B64 cells; assay type: cell-based; details: Table 2(2), n=2-3
T2 construct: expressed in transfected cells; host or cells: HKRK-B7 and HKRK-B64 cells (derived from pig kidney LLC-PK1 cells)
T2 sequence (Q03431 27-593): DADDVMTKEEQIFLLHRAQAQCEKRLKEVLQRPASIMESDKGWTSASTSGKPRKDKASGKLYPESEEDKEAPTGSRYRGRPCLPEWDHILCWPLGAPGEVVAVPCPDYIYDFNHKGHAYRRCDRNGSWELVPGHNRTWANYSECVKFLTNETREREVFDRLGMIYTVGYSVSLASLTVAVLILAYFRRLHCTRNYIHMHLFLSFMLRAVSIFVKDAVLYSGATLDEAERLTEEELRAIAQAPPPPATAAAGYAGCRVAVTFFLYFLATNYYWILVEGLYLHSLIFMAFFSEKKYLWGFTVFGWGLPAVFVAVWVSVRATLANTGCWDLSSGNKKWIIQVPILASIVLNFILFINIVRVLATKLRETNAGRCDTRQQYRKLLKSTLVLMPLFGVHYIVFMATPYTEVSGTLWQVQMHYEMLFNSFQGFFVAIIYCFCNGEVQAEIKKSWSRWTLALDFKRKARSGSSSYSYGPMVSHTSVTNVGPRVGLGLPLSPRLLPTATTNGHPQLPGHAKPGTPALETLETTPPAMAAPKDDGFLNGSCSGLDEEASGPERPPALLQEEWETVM
Procedure: Each PEG-PTH sample was assayed for its ability to produce cAMP (indicative of the increasing effect of PTH on bone mass) as follows. HKRK-B7 and HKRK-B64 cells, genetically modified from pig kidney-derived LLC-PK1 cells to overexpress human PTH1 receptors at levels of about 1×10^6 and 9×10^4 receptors per cell, respectively, as well as EW29 cells expressing about 1.9×10^5 rat PTH1 receptors per cell (Takasu et al., J. Bone. Miner. Res. 14: 11-20, 1999) were grown in DMEM supplemented with 10% FBS, 1% penicillin and 1% streptomycin. These cells were seeded in 96-well plates at 1×10^5 cells/well and incubated overnight. On the following day, the cells were washed once with 200 μL binding buffer (50 mM Tris-HCl/100 mM NaCl/5 mM KCl/2 mM CaCl2/5% inactivated horse serum/0.5% inactivated bovine serum, pH 7.7), followed by addition of 100 μL cAMP assay buffer (DMEM/2 mM 3-isobutyl-1-methylxanthine/1 mg/mL bovine serum albumin/35 mM HEPES-NaOH, pH 7.4) on ice. […] After removing the reaction solution, the plates were placed on powdered dry ice to freeze the cells and then removed from the dry ice. The cells were thawed with 50 μL of 50 mM HCl and frozen again on dry ice. The level of intracellular cAMP was determined with a commercially available EIA kit (Biotrak cAMP EIA system, Amersham).

human PTH1 receptors [3] = target: T2, human PTH1 receptors; experiment: in vitro ability to produce cAMP, HKRK-B7 cells; assay type: cell-based; details: Table 2(1), n=2-3
Procedure: as §1

[4] = Pharmacokinetics and bioavailability in rats by subcutaneous route; assay type: in vivo; details: subcutaneous, 80 μg/mL at 1 mL/kg
Procedure: Each sample was adjusted to 80 μg/mL by dilution with 25 mmol/L citrate-phosphate buffer (pH 5.0) containing 100 mmol/L NaCl and 0.05 vol % Tween 20 to give a solution for administration. Male SD rats at 6 weeks of age (CLEA Japan, Inc.) were provided for this experiment. Intravenous injection was performed on rats having polyethylene tubes (SP-31, Natsume Seisakusho Co., Ltd.) inserted into the femoral artery and vein. The solutions thus prepared were each administered at a dose of 1 mL/kg through a polyethylene tube inserted into the femoral vein, and blood was collected through a polyethylene tube inserted into the femoral artery before administration and at 5, 15, 30 and 45 minutes as well as 1, 2, 4, 6, 8 and 24 hours after administration. Subcutaneous administration was performed on rats having polyethylene tubes inserted into the femoral artery. The solutions prepared above were each subcutaneously administered at a dose of 1 mL/kg to the dorsal neck region of the rats, and blood was collected in the same manner as used for intravenous injection. These blood samples were centrifuged to collect plasma and stored at −40° C. until assayed for PTH(1-34) or PEG-PTH(1-34) levels.
The level of PTH(1-34) or PEG-PTH(1-34) was determined by RIA analysis using a Rat PTH IRMA Kit (Immutopics). A Cobra Quantum Model 5005 gamma counter (Packard) was used to measure radioactivity for each sample. The plasma level of PTH(1-34) or PEG-PTH(1-34) was calculated from a calibration curve prepared using PTH(1-34) or PEG-PTH(1-34). The Winnonlin program Ver. 2.1 (Scientific Consulting Inc.) was used to analyze the time course of changes in the calculated plasma PTH(1-34) or PEG-PTH(1-34) levels (FIG. 3: by intravenous route; FIG. 4: by subcutaneous route) to calculate the following as pharmacokinetic parameters: time required to reach the maximum plasma level (Tmax); maximum plasma level (Cmax); area under the curve of plasma levels (AUC); plasma half-life (t1/2); total body clearance (Cltotal); mean residence time in the body (MRT); and bioavailability (BA). […]

With “5 k PEG-[Cys^35]-hPTH(1-35): [Cys^35]-hPTH(1-35) conjugated with 5 kDa PEG (SVSEIQLMHNLGKHLNSMERVEWLRKKLQDVHNFC; Parathyroid hormone 5 kDa PEG at Cys35; UniProt P01270 32-66, looked up, variant V35C)” the “Blood iCa level Hour 1” value ([1]; 10 nmol/kg sc) was 1.44 ± 0.02 mM, the “Blood iCa level Hour 3” value ([1]; 10 nmol/kg sc) was 1.50 ± 0.02 mM and the “Blood iCa level Hour 6” value ([1]; 10 nmol/kg sc) was 1.43 ± 0.02 mM. For the same substance, the “Blood iCa level Hour 9” value ([1]; 10 nmol/kg sc) was 1.28 ± 0.04 mM, the “Blood iCa level Hour 24” value ([1]; 10 nmol/kg sc) was 1.36 ± 0.03 mM and the “Blood iCa level Hour 0” value ([1]; 10 nmol/kg sc) was 1.30 ± 0.04 mM. For the same substance, the “Blood iCa level Hour 1” value ([1]; 50 nmol/kg sc) was 1.43 ± 0.03 mM, the “Blood iCa level Hour 3” value ([1]; 50 nmol/kg sc) was 1.49 ± 0.04 mM and the “Blood iCa level Hour 6” value ([1]; 50 nmol/kg sc) was 1.48 ± 0.03 mM. The “Blood iCa level Hour 9” value ([1]; 50 nmol/kg sc) was 1.35 ± 0.06 mM, the “Blood iCa level Hour 24” value ([1]; 50 nmol/kg sc) was 1.36 ± 0.04 mM and the “Blood iCa level Hour 0” value ([1]; 50 nmol/kg sc) was 1.31 ± 0.03 mM. For the same substance, the “Blood iCa level Hour 1” value ([1]; 150 nmol/kg sc) was 1.43 ± 0.04 mM, the “Blood iCa level Hour 3” value ([1]; 150 nmol/kg sc) was 1.49 ± 0.03 mM and the “Blood iCa level Hour 6” value ([1]; 150 nmol/kg sc) was 1.52 ± 0.05 mM. The “Blood iCa level Hour 9” value ([1]; 150 nmol/kg sc) was 1.35 ± 0.02 mM, the “Blood iCa level Hour 24” value ([1]; 150 nmol/kg sc) was 1.40 ± 0.05 mM and the “Blood iCa level Hour 0” value ([1]; 150 nmol/kg sc) was 1.30 ± 0.03 mM. The “increased blood ionized calcium level maintained until” value ([1]; female DDY mice, sc) was 6 h, the “time of maximum increase in blood ionized calcium levels after administration” value ([1]; female DDY mice, sc) was 3 h and the “Maximum cAMP response” value (rat PTH1 receptors) was 52.5 ± 14.1 pmol/well. The EC50 (rat PTH1 receptors; cAMP production) was 3.5 nM, the “Maximum cAMP response” value (human PTH1 receptors [2]) was 66.6 ± 17.4 pmol/well and the EC50 (human PTH1 receptors [2]; cAMP production) was 1 nM. For the same substance, the “Maximum cAMP response” value (human PTH1 receptors [3]) was 122.7 ± 11.5 pmol/well and the EC50 (human PTH1 receptors [3]; cAMP production) was 0.9 nM.

“20k PEG-hPTH(1-34): hPTH(1-34) reacted with mPEG 20 k-SPA, fraction having one 20 kDa PEG molecule per PTH molecule” showed an AUC [4] of 2693.945 ng·h/mL, an MRT [4] of 18.93 h and a Tmax [4] of 7.000 h. For the same substance, the “t ½” value [4] was 11.346 h.
